Source: patent EP1747015B1 (Janssen Biotech, Inc., dated 2012)

T1: murine Tissue Factor in murine brain extracts (murine, UniProt P20352 29-294)
T1 sequence (looked up): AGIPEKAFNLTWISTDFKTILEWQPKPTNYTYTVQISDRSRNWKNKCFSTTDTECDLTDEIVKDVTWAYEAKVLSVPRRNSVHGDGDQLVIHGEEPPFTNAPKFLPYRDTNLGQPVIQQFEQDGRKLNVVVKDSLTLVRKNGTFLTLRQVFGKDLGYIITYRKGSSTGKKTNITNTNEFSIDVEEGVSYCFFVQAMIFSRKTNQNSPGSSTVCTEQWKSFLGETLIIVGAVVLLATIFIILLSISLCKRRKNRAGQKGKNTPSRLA

T2: murine Tissue Factor on B6F10 melanoma cells (murine, UniProt P20352 29-294)
T2 construct: whole, on cells; also called cell-associated mTF
T2 sequence (looked up): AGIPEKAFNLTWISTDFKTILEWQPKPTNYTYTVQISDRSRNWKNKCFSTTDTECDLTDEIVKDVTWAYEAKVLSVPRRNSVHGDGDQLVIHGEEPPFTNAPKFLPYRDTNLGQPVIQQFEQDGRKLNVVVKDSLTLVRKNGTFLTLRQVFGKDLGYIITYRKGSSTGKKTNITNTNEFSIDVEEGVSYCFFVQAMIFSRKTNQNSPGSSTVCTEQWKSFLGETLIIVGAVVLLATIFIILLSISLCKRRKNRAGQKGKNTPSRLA


Experiments:
[1] = target: T1, murine Tissue Factor in murine brain …; experiment: cell-based or functional assay
[2] = target: T2, murine Tissue Factor on B6F10 melanoma …; experiment: FACS on B6F10 melanoma cells that express mTF

EC50 Conc. (ug/ml), inhibition of fibrin clot formation in human plasma [1] | EC50 [2] | Binder
63.3 µg/mL | – | PHD103 Fab (Fab, V domains shown) VH: QVQLVQSGAEVKKPGESLKISCKGSGYSFSNSWIAWVRQMPGKGLEWMGGIIGPGHSYTKYSPSFQGQVTISADKSISTAYLQWSSLKASDTAMYYCARINMGYFDYWGQGTLVTVSS VL: DIELTQPPSVSVAPGQTARISCSGDSLGLKKFVSWYQQKPGQAPVLVIYDDSNRPSGIPERFSGSNSGNTATLTISGTQAEDEADYYCGTYDQTIGHDVVFGGGTKLTVLG
0.82 µg/mL | 4.35 nM | PHD127 Fab (Fab, V domains shown, Human HuCAL Fab; 8 (VH) and 9 (VL) for PHD127 are inferred from the order of the words and must be checked against the listing) VH: QVQLVQSGAEVKKPGESLKISCKGSYSFTNSWISWVRQMPGKGLEWMGIIDPDDSYTSYSPSFQGQVTISADKSISTAYLQWSSLKASDTAMYYCARGAGYGRMFGDVWGQGTLVTVSS VL: DIELTQPPSVSVAPGQTARISCSGDNLGSYYASWYQQKPGQAPVLVIYQDDNRPSGIPERFSGSNSGNTATLTISGTQAEDEADYYCGAYTYSTSWVFGGGTKLTVLG
23.8 µg/mL | – | PHD104 Fab (Fab, V domains shown) VH: QVQLVQSGAEVKKPGESLKISCKGSYSFTSNWIGWVRQMPGKGLEWMGWIYPSDSMTRYSPSFQGQVTISADKSISTAYLQWSSLKASDTAMYYCARYLFGLFDNWGQGTLVTVSS VL: DIELTQPPSVSVAPGQTARISCSGDNLGSYYVSWYQQKPGQAPVLVIYNDNNRPSGIPERFSGSNSGNTATLTISGTQAEDEADYYCATYDSSTDVFGGGTKLTVLG
0.23 µg/mL | – | PHD126 Fab (Fab, V domains shown) VH: QVQLVQSGAEVKKPGESLKISCKGSYSFSNYWIGWVRQMPGKGLEWMGFIDPDDSDTNYSPSFQGQVTISADKSISTAYLQWSSLKASDTAMYYCARALYMQGGSFDSWGQGTLVTVSS VL: DIELTQPPSVSVAPGQTARISCSGDNLGSYYVSWYQQKPGQAPVLVIYRDTDRPSGIPERFSGSNSGNTATLTISGTQAEDEADYYCQSYDYGVSNQVFGGGTKLTVLG
